In US20160369264A1 (HOWARD HUGHES MEDICAL INSTITUTE, published 2016):

Tests used:
[1] = target: the molecule itself; experiment: self-assembly of trimers; negative-stain EM of E. coli pellet
[2] = target: the molecule itself; experiment: self-assembly of fusion trimers; negative-stain EM
[3] = target: the molecule itself; experiment: self-assembly of tetramers; negative-stain EM of E. coli pellet
[4] = target: the molecule itself; experiment: self-assembly of trimers; cell-free expression, negative-stain EM
Description: (A) Design p3Z_42 expressed using an in vitro expression kit. This negative-stain micrograph was made 4 hours after adding pure plasmid DNA of p3Z_42 to the kit components without purification. A Fourier transform is shown from a crystal in the micrograph showing the same P 3 2 1 lattice as visualized in p3Z_42 E. coli expression. (B) Fast dilution re-folded p4Z_9 protein. Large arrays form analogous to those seen from E. coli expressed protein. A Fourier transform is shown highlighting the square lattice. (C) Dialysis re-folded p4Z_9 protein. Large fibrous structures form with the same square array pattern as in E. coli expressed proteins. Fourier transform is shown highlighting the square repeat pattern. (D) Purified and concentrated protein from p6_9H soluble fractions. Arrays were not visualized at this point. […] (E) p6_9H array formation from material as in (d). These arrays formed after further concentration of protein as in (d) and heat application in a water bath. […] Fourier transform is shown with the same P 6 arrangement seen in the pellet sample. Scale bars=50 nm.

[5] = target: the molecule itself; experiment: self-assembly of fusion trimers; negative-stain TEM of E. coli pellet
Description: Synthetic genes of each fusion were obtained and protein was expressed in Escherichia coli cells using a standard T7 based expression vector (Table 2). The protein expression was verified by sodium dodecyl sulfate polyacrylamide gel electrophoresis (SDS-PAGE) after separation of the soluble and insoluble cell portions. Samples of observed protein in the cellular pellets were analyzed for array formation by negative-stain Transmission Electron Microscopy (TEM). […] It is worth noting that 5/7 of the remaining fusions either shared a similar sequence and unknown but potentially similar structures (2 unpublished binding proteins) or were either the same molecular weight or much larger than the p3Z-42 monomer protein (3 proteins between ˜25-35 kDa).

B1: p3Z_11 (designed binder)
chain: MEEVVLITVPSESVARIIAKALVASRLAACVNIVPGLTSIYRWQGSVVEDQELLLLVKTTTHAFPKLKHTVKIIHPYTVPEIVALPIAEGNREYLDWLRENTGLE
notes: Designed self-assembling protein; Expressed from pet29b in E. coli; also called design p3Z_11
B1: binds [1].

B2: p3Z-42 TDRD2 fusion (designed binder)
chain: MGSRSLQLDKLVNEMTQHYENSVPEDLTVHVGDIVAAPLPTNGSWYRARVLGTLENGNLDLYFVDFGDNGDCPLKDLRALRSDFLSLPFQAIECSGSGSGGMHNNRLQLSRLERVYQSEQAEKLLLAGVMLRDPARFDLRGSLTHGRDVEIDTNVIIEGNVSLGNRVKIGTGCVIKNSAIGDDCEISPYTVVEDAVLAAACTIGPFARLRPGAVLLEGAHVGNFVEMKKAVLGKGSKAGHLTYLGDAAIGDNVNIGAGTITCNYDGANKFTTIIGDDVFVGSDTQLVAPVSVGKGATIAAGTTVTRNVGANALAISRVPQTQKEGWRRPVKKK
B2: binds [2].

B3: p4Z_9 (designed binder)
chain: MEAVRAYELQLELQQIRTLRQSLELKAKELEYAAGIITSLKSERRIYRAFSDLLVEITKLEAIEHIARSIIVYVREIAKLAKRETEIMEELSKLRAPLSLE
notes: Designed self-assembling protein; tetramer (C4) that packs into a P 4 21 2 lattice; also called design p4Z_9
B3: binds [3].

B4: p3Z_42 (designed binder)
chain: MHNNRLQLSRLERVYQSEQAEKLLLAGVMLRDPARFDLRGSLTHGRDVEIDTNVIIEGNVSLGNRVKIGTGCVIKNSAIGDDCEISPYTVVEDAVLAAACTIGPFARLRPGAVLLEGAHVGNFVEMKKAVLGKGSKAGHLTYLGDAAIGDNVNIGAGTITCNYDGANKFTTIIGDDVFVGSDTQLVAPVSVGKGATIAAGTTVTRNVGANALAISRVPQTQKEGWRRPVKKKLE
notes: Designed self-assembling protein; beta-helix trimer (C3) that packs into a P 3 2 1 lattice; Expressed from pet29b in E. coli or with a cell-free kit; also called design p3Z_42
B4: binds [4].

B5: p3Z-42 Ferrodoxin fusion (designed binder)
chain: MLTVEVEVKITADDENKAEEIVKRVIDEVEREVQKQYPNATITRTLTRDDGTVELRIKVKADTEEKAKSIIKLIEERIEEELRKRDPNATITRTVRTEVGSSWSGSGSGGMHNNRLQLSRLERVYQSEQAEKLLLAGVMLRDPARFDLRGSLTHGRDVEIDTNVIIEGNVSLGNRVKIGTGCVIKNSAIGDDCEISPYTVVEDAVLAAACTIGPFARLRPGAVLLEGAHVGNFVEMKKAVLGKGSKAGHLTYLGDAAIGDNVNIGAGTITCNYDGANKFTTIIGDDVFVGSDTQLVAPVSVGKGATIAAGTTVTRNVGANALAISRVPQTQKEGWRRPVKKK
B5: binds [5].
